The target in assay [1] is T1, human DLL3 on cells (human, UniProt Q9NYJ7 27-618).
T1 construct: Endogenous on H1184 and SHP77; Cell line is named under assay; also called H1184; DLL3/H82
T1 sequence: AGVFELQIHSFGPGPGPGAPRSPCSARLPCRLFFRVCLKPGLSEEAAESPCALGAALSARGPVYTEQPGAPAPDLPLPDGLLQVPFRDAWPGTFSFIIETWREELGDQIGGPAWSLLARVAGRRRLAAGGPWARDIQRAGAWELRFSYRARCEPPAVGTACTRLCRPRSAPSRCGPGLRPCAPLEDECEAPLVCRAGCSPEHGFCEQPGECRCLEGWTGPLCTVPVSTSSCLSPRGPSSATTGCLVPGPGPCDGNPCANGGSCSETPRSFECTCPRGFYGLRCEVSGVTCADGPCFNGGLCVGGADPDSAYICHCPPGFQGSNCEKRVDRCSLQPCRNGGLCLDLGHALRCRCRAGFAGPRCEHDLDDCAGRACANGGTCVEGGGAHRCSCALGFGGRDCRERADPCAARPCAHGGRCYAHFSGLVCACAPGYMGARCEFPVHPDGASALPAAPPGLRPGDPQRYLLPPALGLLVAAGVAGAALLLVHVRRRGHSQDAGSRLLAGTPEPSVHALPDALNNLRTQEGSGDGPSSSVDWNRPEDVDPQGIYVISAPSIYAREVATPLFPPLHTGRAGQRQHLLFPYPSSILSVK
The assay is described as follows: flow cytometry, H1184 cells. As to the method:
(§1) The plates were centrifuged at 300 g for 5 min, and the supernatant was removed. Different concentrations of test antibodies were added at 100 μL/well. The plates were incubated in the dark in a refrigerator at 4° C. for 1 h. After 3 centrifugal washes at 300 g, working concentrations of APC anti-human IgG Fc (BioLegend, 410712) or PE F(ab′)2-goat anti-human IgG (invitrogen, H10104) were added. The plates were incubated in the dark in a refrigerator at 4° C. for 40 min. After 3 centrifugal washes at 300 g, the geometric mean fluorescence intensity was measured on an Invitrogen flow cytometer, and the EC50 values for the binding of the antibodies to DLL3-expressing cells were calculated.
In general terms: Flow cytometry measures light scatter and fluorescence of single cells or particles in a stream.

The target in assay [2] is T2, human DLL3 (ACRO, DLL3-H52H4) (human, UniProt Q9NYJ7 27-492).
T2 construct: Bought
T2 sequence: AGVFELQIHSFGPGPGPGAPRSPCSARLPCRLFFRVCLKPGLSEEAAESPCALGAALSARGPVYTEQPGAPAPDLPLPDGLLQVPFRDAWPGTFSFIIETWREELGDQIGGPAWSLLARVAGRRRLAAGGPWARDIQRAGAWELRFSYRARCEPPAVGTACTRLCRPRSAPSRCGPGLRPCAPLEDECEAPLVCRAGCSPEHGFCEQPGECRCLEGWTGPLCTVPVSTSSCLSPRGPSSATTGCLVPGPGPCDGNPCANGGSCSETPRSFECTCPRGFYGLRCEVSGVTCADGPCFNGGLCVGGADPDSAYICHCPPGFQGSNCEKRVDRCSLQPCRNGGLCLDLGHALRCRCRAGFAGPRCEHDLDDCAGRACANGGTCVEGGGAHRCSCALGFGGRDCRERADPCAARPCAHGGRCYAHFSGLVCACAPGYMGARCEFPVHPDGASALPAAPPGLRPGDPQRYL
The assay can be described thus: SPR Biacore 8K, Ab captured on Protein A. The method, boiled down: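 Antibodies captured on a Protein A chip for 18 s; DLL3 or CD3D&3E antigen flowed 180 s, then 600 s dissociation, with real-time detection. Regeneration used 10 mM glycine-HCl pH 1.5 between cycles. Kinetics were obtained by 1:1 model fitting.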
On the technique in general: In SPR one partner is held on a chip, and binding of the other changes the refractive index at the surface.

Assay [3] deals with T1, human DLL3 on cells. The assay is described as follows: flow cytometry, DLL3/H82 cells. On the procedure: as §1

Positions count from the first letter of the chain named.

B1: hu98L2H2 (antibody, human IgG1, kappa, V domains shown)
VH: EVQLVESGGGLVQPGGSLRLSCAASGFTFSDYGIHWVRQAPGKGLEWVAYISSGGYTIYYADTVKGRFTISRDNAKNSLYLQMNSLRAEDTAVYYCARGDYEDIFYTMDYWGQGTTVTVSS
VL: DIQMTQSPSSLSASVGDRVTITCRASRDITKFLNWYQQKPGKAVKLLIYYTSRLHSGVPSRFSGSGSGTDYTLTISSLQPEDFATYYCQQGNTLPWTFGGGTKVEIKR
As to B1, the Emax in assay [1] was determined as 2310. In assay [2], the Kd (usually the equilibrium constant for the complex coming apart) stood at 0.55 nM; the koff (usually the rate constant with which the complex falls apart) was 0.000668 s⁻¹; the kon – broadly, a measure of how fast the partners come together – turned out to be 1.22e+06 M⁻¹ s⁻¹.

B2: hu98L3H2 (antibody, human IgG1, kappa, V domains shown)
VH: B1 VH
VL: B1 VL with K42G
Turning to B2, in assay [1], the Emax was found to be 2350. Also, in assay [2], the Kd was determined as 0.464 nM, the koff was found to be 0.000732 s⁻¹ and the kon was determined as 1.58e+06 M⁻¹ s⁻¹.

B3: hu98L3H5 (antibody, human IgG1, kappa, V domains shown)
VH: B1 VH with I34M, I58S
VL: B1 VL with K42G
Take B3: the Emax in assay [1] was found to be 1540. In addition, in assay [2], the Kd came to 1.22 nM, the koff was determined as 0.00173 s⁻¹ and the kon was found to be 1.42e+06 M⁻¹ s⁻¹.

B4: hu98L3H1 (antibody, human IgG1, kappa, V domains shown)
VH: B1 VH with E102D
VL: B1 VL with K42G
B4 yielded an Emax in assay [1] of 2440. Further, in assay [2], binding was put at a Kd of 0.232 nM, the koff was determined as 0.000372 s⁻¹ and the kon stood at 1.6e+06 M⁻¹ s⁻¹.

B5: hu98L2H1 (antibody, human IgG1, kappa, V domains shown)
VH: B1 VH with E102D
VL: B1 VL
B5 returned an Emax in assay [1] of 2470. In assay [2], this molecule gave a Kd of 0.269 nM, a koff of 0.000389 s⁻¹ and a kon of 1.45e+06 M⁻¹ s⁻¹.

B6: hu98L3H4 (antibody, human IgG1, kappa, V domains shown)
VH: B1 VH with I58S
VL: B1 VL with K42G
In the case of B6, in assay [1], the Emax worked out at 1600. In assay [2], this molecule yielded a Kd of 1.11 nM, a koff of 0.00151 s⁻¹ and a kon of 1.36e+06 M⁻¹ s⁻¹.

B7: hu98L1H1 (antibody, human IgG1, kappa, V domains shown)
VH: B1 VH with E102D
VL: B1 VL with V44P, Y71F
In assay [1], B7 registered an Emax of 2820. In assay [2], this molecule displayed a Kd of 1.1 nM, a koff of 0.00171 s⁻¹ and a kon of 1.55e+06 M⁻¹ s⁻¹.

B8: hu6L2H13 (antibody, human IgG1, kappa, V domains shown)
VH: EVQLVQSGSELKKPGASVKVSCKASGYTFTDYYMNWVKQAPGQGLEWMGIINPYSGVTIYNHKFKGRFALSVDKSSNTAYLQISSLKAEDTAVYYCARQDSLLDYAMDYWGQGTTVTVSS
VL: DIQMTQSPSSLSASVGDRVTITCHASQGISGNMGWLQQKPGKAPKGLIYHGANLEDGVPSRFSGSGSGADYTLTISSLQPEDFATYYCVQYAQFPYTFGGGTKVEIKR
Consider B8, for which, in assay [1], the EC50 (as a rule, the concentration giving half of the maximal effect) is 0.1 nM and the Emax is 2100. In assay [2], this molecule showed a Kd of 0.382 nM, a koff of 0.000803 s⁻¹ and a kon of 2.1e+06 M⁻¹ s⁻¹.

B9: hu6L2H7 (antibody, human IgG1, kappa, V domains shown)
VH: EVQLVESGGGLVQPGGSLKLSCAASGYTFTDYYMNWVRQASGKGLEWVGIINPYSGVTIYNHKFKGRFTLSVDKSKNTAYLQMNSLKTEDTAVYYCARQDSLLDYAMDYWGQGTTVTVSS
VL: B8 VL
Regarding B9, in assay [1], the EC50 was found to be 0.07 nM and the Emax worked out at 2200. In assay [2], this molecule gave a Kd of 3.06 nM, a koff of 0.00205 s⁻¹ and a kon of 670000 M⁻¹ s⁻¹.

B10: hu6L4H11 (antibody, human IgG1, kappa, V domains shown)
VH: B8 VH with A69V
VL: B8 VL with T85D
In assay [1], B10 yielded an EC50 of 0.07 nM and an Emax of 2190. In assay [2], the Kd was 0.314 nM, the koff worked out at 0.000672 s⁻¹ and the kon is 2.14e+06 M⁻¹ s⁻¹.

B11: hu6L4H12 (antibody, human IgG1, kappa, V domains shown)
VH: B8 VH with K38R
VL: B8 VL with T85D
In assay [1], B11 registered a concentration for a half-maximal effect (EC50) of 0.05 nM and an Emax of 2130. Further, in assay [2], the affinity, expressed as Kd, was 0.391 nM; the koff came out at 0.000805 s⁻¹; the kon worked out at 2.06e+06 M⁻¹ s⁻¹.

B12: hu6L4H13 (antibody, human IgG1, kappa, V domains shown)
VH: B8 VH
VL: B8 VL with T85D
notes: also called hu6L4VH13
On to B12, for which, in assay [1], a half-maximal response (EC50) required 0.09 nM and the Emax worked out at 2120. In assay [2], this molecule showed a dissociation constant Kd of 0.322 nM, a koff of 0.000695 s⁻¹ and a kon of 2.16e+06 M⁻¹ s⁻¹.

B13: hu110L1H2 (antibody, human IgG1, kappa, V domains shown)
VH: EVQLVQSGAEVKKPGASVKVSCKTSGYTFTDYYMNWVRQAPGQSLEWMGIINPYNGGTSYTQKFKGRVTITVDKSASTAYMELSSLRSEDTAVYYCARHFYDSSYLTYSTMDYWGQGTTVTVSS
VL: DIVMTQSPDSLAVSLGERATINCKASENVGIFVSWYQQKPGQSPKLLIYGASNRYTGVPDRFSGSGSATDFTLTISSLQAEDVAVYYCGQSHSYPLTFGQGTKLEIKR
In assay [2], B13 showed a Kd of 0.0819 nM, a koff of 4.26e-05 s⁻¹ and a kon of 520000 M⁻¹ s⁻¹. In assay [3], this molecule gave an EC50 of 1.31 nM and an Emax of 4700.

B14: hu110L1H1 (antibody, human IgG1, kappa, V domains shown)
VH: B13 VH with T24A, S44R
VL: B13 VL
On to B14, for which, in assay [2], the Kd worked out at 0.068 nM, the koff was determined as 4.17e-05 s⁻¹ and the kon came to 614000 M⁻¹ s⁻¹. Also, in assay [3], the EC50 came out at 1.15 nM and the Emax came to 4470.

B15: hu110L2H1 (antibody, human IgG1, kappa, V domains shown)
VH: B13 VH with T24A, S44R
VL: B13 VL with D1N, D9K, V85D
B15: in assay [2], binding was characterised by a dissociation constant (Kd) of 0.115 nM, the koff was 5.84e-05 s⁻¹ and the kon is 509000 M⁻¹ s⁻¹. In addition, in assay [3], the EC50 stood at 1.25 nM and the Emax came out at 4720.

B16: hu110L1H5 (antibody, human IgG1, kappa, V domains shown)
VH: B13 VH with N55T
VL: B13 VL
For the molecule B16, in assay [2], the affinity, expressed as Kd, was 0.141 nM; the koff is 6.41e-05 s⁻¹; the kon came to 454000 M⁻¹ s⁻¹. In assay [3], this molecule yielded an EC50 of 1.61 nM and an Emax of 4610.

B17: hu110L1H6 (antibody, human IgG1, kappa, V domains shown)
VH: B13 VH with G56V
VL: B13 VL
In assay [2], B17 displayed a Kd of 0.102 nM, a koff of 5.32e-05 s⁻¹ and an on-rate constant (kon) of 520000 M⁻¹ s⁻¹. In assay [3], this molecule yielded an EC50 of 1.66 nM and an Emax of 4620.

B18: hu110L1H4 (antibody, human IgG1, kappa, V domains shown)
VH: B13 VH with N55S
VL: B13 VL
On to B18, for which, in assay [2], the affinity, expressed as Kd, was 0.0911 nM; the koff was 4.8e-05 s⁻¹; the on-rate constant (kon) came to 527000 M⁻¹ s⁻¹. In assay [3], the response was half-maximal at 1.51 nM (EC50) and the Emax was 4580.

B19: hu110L1H3 (antibody, human IgG1, kappa, V domains shown)
VH: B13 VH with N55Q
VL: B13 VL
In assay [2], B19 showed a Kd of 0.0843 nM, a koff of 4.75e-05 s⁻¹ and a kon of 564000 M⁻¹ s⁻¹. In assay [3], a half-maximal effect (EC50) was put at 1.15 nM and the Emax turned out to be 4560.
